Measured values as given in a protein production outcome set (Wang et al. 2014).

Experiment: label from the status in PepcDB records
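Note: failed if final PepcDB status was selected cloned or expressed and not failed if soluble or beyond.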

Row | Sequence | protein production
1 | HFPINTLLLMRATTGVQLRLPERFGEFLDCLFRALWVDKRNLNDPATITQVLEQGGFDPQQILDLSNDEEVKAALKDKTEQALQKGVFGAPSMFVGDELFFGQDRLDFVREALNA | failed
2 | MQLQTEVKKQPSKRKFKMPDAYVLLFFIALLCAIATYFVPAGEFKRVTNRTVTTTIPGSYHSVPQSPVGFVSFFTAIEKGMTLAAPIIFLILFTGGAIAILEKTGALDGLIYHVINKFRNQQFLFICIVAALFSILGTTGIIVNSVIGFIPIGIIVARTLKWDAIVGVAIIYLGTYAGFNATILSPSPLGISQKIAELPMFSGIGLRTAIYLSFLLATILYINWYVKRLKKSNKGSILGDNWFPSNALSSGKEAQKTEVPWTIRHKLILLVSALSLITFLIGAFRLHWTDAEMTATFIFIAITAGIIGGMKANDIASTFLAGCQNLIYGALIVGMARCISVILEQGKLLDTIVNQLAQSLEGQSPVFGVIGMYVSSAALHFLISSGTGESVIFIPILAPLADFMHITRQVTVQAVMLGEGVVNCLNPTSGVLMGVLAASGISYGKWIRFMAPLAFIWFIIGLIFLIVGVNIEWGPY | failed
3 | SSFQSTTGHCVHMRGLPYRATENDIYNFFSPLNPMRVHIEIGPDGRVTGEADVEFATHEDAVAAMAKDKANMQHRYVELFLNSTAGTSG | not failed
4 | MAIDTNSSTPLVSVITPTYNRPNYLQAALTSAVRQTYSHIEIIVCDNCSPQNPQAIVDSFDDSRIRFFRNSSNMGMFANTIKAFKMARGKYVACLLDDDLWEEDFLEKLVPPLEANPNLALAFCDHYIMDANGNIDDALTEEYSRSYKRVDLPEGIYQPFYRMGLVDRSVSTATAAVMRRDAIAWDAIPAEVGGSWDIYLNYLCCRSGLGAYFYPEKLTRYRVHEQTETMLSGKRDAQAKIRKAQADMFCYEQFMADERLQELKPYFQQQWAHVSTTLGIGFMRSKQMKLARSYFWRSLKQSLKLRTMAGLMLSFTPPTIASRF | failed
5 | MTSVMPFAHLLLALLVVFVWGINFIFVKLSLEEFSPLLLCAVRFLLASVPAVFFIKPPAVPFKIIASYGLIMFALQFALLFIGLRVGMTPGVASLLMQVQVFFSMFFAIIFLGEQPQVGQIIGALIAFIGIGVVALHFDHNVSLMGFLCILAAAASWGIGNLITKKIHSVNLIAVIVWSSFVACLPMFILSLVFEGPESFVTAYEHMTWKGILSVLYIVYISTWVGYGVWNWLISRYPVGMVVPFTLLVPVVGILSSVLILGEPFYLWKLVAGLLVISGLCINLLTTRLFVAKTQQPETA | failed
6 | MNWSIPNILTVLRLLAAPGVAVMFLYFHRPWADWFALTLFILAAVTDFFDGYLARLWKQESKFGAMLDPIADKAMVVIALVIITGYSGMNPWLILPVTLILFREVFVSGLREFLGAKASLLKVTKLAKWKTTAQMVAIAILFLGTGLEHLEGIARQGMTWEQYARAVSAGEADPIRSCGMHGCSSYATWLGLALIWIAAALTFITGWDYFRKALPYLKDEK | not failed
7 | MAGNFWQSSHYLQWILDKQDLLKERQKDLKFLSEEEYWKLQIFFTNVIQALGEHLKLRQQVIATATVYFKRFYARYSLKSIDPVLMAPTCVFLASKVEEFGVVSNTRLIAAATSVLKTRFSYAFPKEFPYRMNHILECEFYLLELMDCCLIVYHPYRPLLQYVQDMGQEDMLLPLAWRIVNDTYRTDLCLLYPPFMIALACLHVACVVQQKDARQWFAELSVDMEKILEIIRVILKLYEQWKNFDERKEMATILSKMPKPKPPPNSEGEQGPNGSQNSSYSQS | not failed
8 | SSQWHHPRSGWGRRRDFSGRSSAKKKGGNHIPERWKDYLPVGQRMPGTRFIAFKVPLQKSFEKKLAPEECFSPLDLFNKIREQNEELGLIIDLTYTQRYYKPEDLPETVPYLKIFTVGHQVPDDETIFKFKHAVNGFLKENKDNDKLIGVHCTHGLNRTGYLICIYLIDVEGVRPDDAIELFNRCRGHCLERQNYIEDLQNGPIRKNWNSSVPRSSDFEDSAHLMQPVHNKPVKQGPRYNLHQIQGHSAPRHFHTQTQSLQQSVRKFSENPHVYQRHHLPPPGPPGEDYSHRRYSWNVKPNASRAAQDRRRWYPYNYSRLSYPACWEWTQ | not failed
9 | MSVETQRESLLNAPALLFMSAVVLIAFWILFPRQPAFRDPANLSAKDALSVAYLRVLVQSDPGNAPLRLSFVQVLTEAGMTDEAVLAMEPLQNAPESGLTYEIRLAELKLALQQLYRHPPRDVEASLRRRIGELVPLLLRLADNDKESNQVVLLAEQFGEPSVVAETFEQLAGMQNETRQTKSRWLAFAAKQRLAAAQPRAAAQNFCRAFTFERIARKKTELAKACLGAYLQAGVDREALKAAMQILSAYSSSNADAQLLLLAADVAQPMGDRDHALVWLEQASAHLPADQRLAERVVRLQVSMGLLSEGLARAPMLRASLIPGSERQRLLAHLYDWNGQPDEALALWLSFARHKADEEAETRAFALAQAKPDNEAIVQLLEAVMSRRKLTTTEADAYVKAGLAVAQPSRVEKQLRRHAERFGNPPPILNALVEVLVLQGKPDAALTLYEDMPEIQDGRQRLALARLYEEAGNTQKSFQLLLRDIDSPPPASAEEYWLLLAKVSTQLGQDAYAGQAYEKALALRSNDVEILENLQRLALRHHDEKKSERLARYGWERLKRIEDLQRLMRFSWKRRNWDELDQWLEVAEKLPSAAQARDYWYFQSMRRMAHGEQSAARGALQEILKLQAADPEVTEAMIWLLLAYEKIDRVLLDSVVAPYRAQTASQSTVNPALAEALAAAEQGLGRPVQAAAWFLRSLSTRAGDFLWILALADNMEWAGCPAHANYARFQALEMFASRQNSRIEVKYPSRLAEYFFGSKYLPPKREGTEDAKKQEELQSIRDQWGFGGKLDNADYFALRREVERLELSQWKDFAKAVRNRNEREVERQLALISDHLKRQPAAASHPDMLPLSIDDVDRANRWLAGEPEPNPSDLATELDICRETLTKIREFPVNSEPAKR | failed
10 | MERRLTTILAADLSGYSRLMAADEEGTVTRLRHLFADIVRPDLSREGGRLIKTMGDGMLVEFASPVAALRSAVAILQQVARDQVETAPDTRMLFRVGIHLGDVISDGDDILGDAVNIAARLESLATPGGICISRSVHDQVRGKVDAELIELGPQPVKNIPDPVEVWRVGAEGIACAAEKPAVRAELPAVVILPFDNMSADPEQDFLADGIVEDVTTELSRFRTLTVIARNSAFAYKGSHKDVRQIAEELGVRYVVEGSVRRAGDRLRATAQLIDARTGAHVWADRWDRTMADLFDLQDELTAAILSGVEPELGAHERNLARRKPTDSLTAWEMCQKGYSEFTRYTDEGYSQAHAYYTRAIAADPDFALPHALLARLAWVKVITGRTRDPAAEISTGLDHAAQAIERDDRLEIGYVALGVLLAITGREQDAADALDKAEALNPNNAVLHFGRCHACLFMQRLDCDRLERAARTALRLNPKDPMAWGFWFQLGNAFTFRDIDAAEPEALAAYETACRFANADYFVFMATALKHAKLGNRDKAAHYLAQARERYPALTAEFWRRAFRFPIWSRWVAADEPNIQLLIDLGLPQK | failed
11 | MADVENQQDSSFPVKRKSDLFCQDQDNVTNKAQKLNPSLNSADSESKDGETNGSGQIENLNSSTEETIGAESSVLSEKAAEEVESGVIGDVGAEEEQEDEEDEEEDDEEEEEEEEVVDRKGKGISREDKGKGKMIEVEESDDEDDSDDDEDDEGFDEDDESDFSDDPLAEVDLDNILPSRTRRRSSQPGVFIPNEFSNRHVNDEDDESSDSDA | failed
12 | MSSILSDTAPRFLADYRPADFTINTVNLTIHLDDTCSQVVSELTIERKGDVQQALQLNGEHLTLVSLVLDNQALSKDQYQINETLLIIPASSLPDRSHFTLIITTEINPQENTALEGLFKSGDAFCTQCEAEGFRRISYYLDRPDVMATFTTKVIADKNLYPYLLSNGNKVASGELSDNKHFVTWHDPFPKPCYLFALVAGNFDLLEDNFTTASGREVALEIFVDEGNLAKAEHAMTSLQKSMAWDEETFGLEYDLDIYMIVAVDFFNMGAMENKGLNVFNSKYVLADSHCATDSDYFNIEAVIAHEYFHNWTGNRVTCRDWFQLSLKEGLTVFRDQQFSAQMHSSAVTRIQNVRVLRSQQFAEDAGPMAHPIRPEKVLEMNNFYTLTVYEKGSEVIRMLHTLIGVDKFRQGMDLYFSRFDGMAVTCDDFINAMSDASGKDLAQFKLWYSQSGTPVIKAQEMFDSQTNIYTLTLLQQSPITKNQQNPQALHIPIKVELISDNNNEASQSELLELTQTEQSWQFSGFTSKPTLAMLADFSAPVKLIFDQNNTSLLTIMQQADNSFCRWDAGQKLLMSYLHQLTFDIDYTIPNELINAINDMLNSGGDRAFIAEQLSLPSFDEAASLMVDIDPIALTNAITTLATFIARGTQQQLLVSYKACQHEDLKDNAVANRALKNVCLSYLSLLPEYQYLVTQQYQQATNNDDILKENMTDSLAALTCSSKNNLDDLNEQLEHFENKWQQTTLVMDKWFALNASVVSEDVFTQLANLLEHPQFSLKNPNRARSLIGAFAMNNPKYFHCPTGRGYQFLADQIAKLNEINPQVASRLITPLIQFKSFAPAHQKLMKAELVKLQALTNLSNDLKEKLDAALND | failed
13 | NGNPIPMGYSQAVENNVQITNFALFSAAAIGVELCLFDEQNQETRLPMVRTENVWHLAVTGVKTGTEYAFRIHGEFANPQKLILDPYAKAVNGKPDLSSEESRSWFLLSDNRDNAHLAPRAVVIS | failed
14 | MTQTDRPCLAALVILILLQLIMLFSLFAGVPPHPPIATPLFGIGPFIGASVSAAIAAIVLGESRAARVLALLAVLGALVSFGPQKYLDPQFPLIWPAVIAAQLAAITVLVRLLPALSRQDA | failed
15 | FDFKAGEEVLARWTDCRYYPAKIEAINKEGTFTVQFYDGVIRCLKRMHIKAMPEDAKGQDWIALVKA | not failed
16 | MPKPHETAVYTHGHHESVLRSHTWRTAENSAAYLLGSLRPHMRILDIGCGPGTITADLAERVPEGHVTGVDRSPEIVERARATAAARGLENTGFAVADVHALDYPDDTFCVVHAHQVLQHVGDPVRALREMRRVARPGGFIAVRDSDYGAMTWYPASSGMDDWLDLYHRVARANGGEPDAGRRLKAWALEAGFTDITATSATWTFTTPEEREWWSGLWADRTLASAYAERATEGGHATPERLRAVSAAWRDWGKHPESWFSVLHGEILCRKEA | failed
17 | MSFTGKDYSRFRSQQQRGNPHSSEGNTSAVHGTGQNSRPQTPINQASGASPQQGNQSPNGSVNHANPLASRLNDITLDELLDSLGRAGLLRLDPNRPPGTFWFEDDPSVPATVRSIFERDFKELHANWSMTPQHVVDRWFETFAQMYNWDKTINKRVKTEFEAKLKERMTDQVCRWKGKWREKGDAAMPRWFDPAVWAGLISFWRDPKSELKSINSRNARLHDPDGLGIHKHRSGQTSYKAHARKRCELTGETTPNFLVLLDKTHRKPDGSFIDGKSEEIYNEVSSRIQEESSQLCSNNTTESTASGGGSKEEREDIWGWFIAARSRMSSHWSFSSSRRSG | failed
18 | MDYPVWQLWGINGGLLVAIISVLHVFVAQFAVGGGFLLVHAATRAERAGSAEATFWVKRFTRFFLLLSMVFGGVSGVGIWVIISLISPAATSLLVHRFVYAWATEWVFFLGEIVALLVYYYGFGKMRFEDHRNVGLLYGLFAYLSLFMINGIITFMLTPGAWMQTQGFWDGFFNPTFWPSLLFRSALCAMLSGLFGLVWASLIDDERARELMTGVTRLWALVPIPFMAVGAWWYLGALPAPQLEMVLRRTADIRPFLEAFPWVLAALMVGGLAFFTRLPSGARVPVAALLLVLGLCQVGTFEWVRETGRRPWIVHGVIWSNGITPEAGAKSDLEGMLKVARWSGVKQVAEANMHEAGRELWQVQCANCHGLGAPMIDILPRIANRPLTGVEALITGQGALQGYMPPFVGTPAERRALATYLVNERDARRH | failed
19 | MLSKRDAILKAAVEVFGKKGYDRATTDEIAEKAGVAKGLIFHYFKNKEELYYQAYMSVTEKLQKEFENFLMKNRNRDIFDFMERWIEKKLEYSASHPEEADFLITLVSVDEGLRKRILLDLEKSQRVFFDFVREKLKDLDLAEDVTEEIALKFLMWFFSGFEEVYLRTYQGKPELLKRDMNTLVEEVKVMLRILKKGMTK | not failed
20 | MAPVKLYMVEVIDKKEIAANERRSRENDVTGPEITHYYQVTFRLTTDDRKDLVLNIDKSSYQNIEPEMKGRLFMQGSRFVQFETDVPIDEQKLEHHHHHH | not failed
